Reference: patent US20240307885

Molecular target: Insulin from bovine pancreas, P01317
Sequence (P01317 85-105, chain 1 of 2): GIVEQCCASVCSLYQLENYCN
Sequence (P01317 25-54, chain 2 of 2): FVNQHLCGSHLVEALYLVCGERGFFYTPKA

B1: Protein disulfide isomerase from Thermoascus crustaceus (SEQ ID NO: 1) (protein)
chain: ADAESDVRSLKKDTFDDFIKEHDLVLAEFFAPWCGHCQALAPEYEAAASELKEKNIPLAKVDCTEEADLCKEHGVEGYPTLKVFRGLDSVKPYPGARKSAAIVSYMVKQSLPAVSTVTKENLEEFKTMDKVVIIGYIAPDDKTSNETFTAFADSKRDDYLFAATNDAALAKAEGVKQPSIVLYKDFDEKKDVFDGKFDQETMLSWVKTASTPLVGEIGPETYAGYMSAGIPLAFIFAETPEERQKLAADFKPIAEKHRGAINIVTIDAKAFGAYAGNLNLDPQKFPCFAIHDTVKNAKFPYDQSKEVNAKDIGQFVQEVLDGKVEPSIKSEPIPETQEGSVTVVVAHSYRELVIDNDKDVLLEFYAPWCGHCKALAPKYEELGRLYAENPDLASKVTVAKIDATANDVPDEIQGFPTIKLFPAGAKDSPVDYAGSRTVEDLANFIKENGKHKVDALSAATAKPEQGGDVTSTPSISSETTAETAAPTTDGSEHDEL
Insulin reduction assay with DTT, MALDI MS (worded result): in the presence of the PDI, a significant amount of the cystines are reduced resulting in separation of the insulin into the A peptide and B peptide | Insulin reduction assay with sulfite, MALDI MS (worded result): in the presence of the PDI, a significant amount of the cystines are reduced resulting in separation of the insulin into the A peptide and B peptide | Ratio (A chain): mass peak area of A peptide chain to intact insulin, MALDI MS; 2.5 µg/mL PDI, 0 mM DTT: 0.006 | Ratio (A chain): mass peak area of A peptide chain to intact insulin, MALDI MS; 2.5 µg/mL PDI, 0 mM sulfite: 0.009 | Ratio (A chain): mass peak area of A peptide chain to intact insulin, MALDI MS; 2.5 µg/mL PDI, 2 mM DTT: 0.035 | Ratio (A chain): mass peak area of A peptide chain to intact insulin, MALDI MS; 2.5 µg/mL PDI, 2.9 mM sulfite: 0.027 | Ratio (A chain): mass peak area of A peptide chain to intact insulin, MALDI MS; 5 µg/mL PDI, 0 mM DTT: 0.005 | Ratio (A chain): mass peak area of A peptide chain to intact insulin, MALDI MS; 5 µg/mL PDI, 0 mM sulfite: 0.007 | Ratio (A chain): mass peak area of A peptide chain to intact insulin, MALDI MS; 5 µg/mL PDI, 2 mM DTT: 0.07 | Ratio (A chain): mass peak area of A peptide chain to intact insulin, MALDI MS; 5 µg/mL PDI, 2.9 mM sulfite: 0.05 | Ratio (A chain): mass peak area of A peptide chain to intact insulin, MALDI MS; 10 µg/mL PDI, 0 mM DTT: 0.003 | Ratio (A chain): mass peak area of A peptide chain to intact insulin, MALDI MS; 10 µg/mL PDI, 0 mM sulfite: 0.008 | Ratio (A chain): mass peak area of A peptide chain to intact insulin, MALDI MS; 10 µg/mL PDI, 2 mM DTT: 0.172 | Ratio (A chain): mass peak area of A peptide chain to intact insulin, MALDI MS; 10 µg/mL PDI, 2.9 mM sulfite: 0.104 | Ratio (B chain): mass peak area of B peptide chain to intact insulin, MALDI MS; 2.5 µg/mL PDI, 0 mM DTT: 0.01 | Ratio (B chain): mass peak area of B peptide chain to intact insulin, MALDI MS; 2.5 µg/mL PDI, 0 mM sulfite: 0.019 | Ratio (B chain): mass peak area of B peptide chain to intact insulin, MALDI MS; 2.5 µg/mL PDI, 2 mM DTT: 0.109 | Ratio (B chain): mass peak area of B peptide chain to intact insulin, MALDI MS; 2.5 µg/mL PDI, 2.9 mM sulfite: 0.055 | Ratio (B chain): mass peak area of B peptide chain to intact insulin, MALDI MS; 5 µg/mL PDI, 0 mM DTT: 0.009 | Ratio (B chain): mass peak area of B peptide chain to intact insulin, MALDI MS; 5 µg/mL PDI, 0 mM sulfite: 0.018 | Ratio (B chain): mass peak area of B peptide chain to intact insulin, MALDI MS; 5 µg/mL PDI, 2 mM DTT: 0.185 | Ratio (B chain): mass peak area of B peptide chain to intact insulin, MALDI MS; 5 µg/mL PDI, 2.9 mM sulfite: 0.083 | Ratio (B chain): mass peak area of B peptide chain to intact insulin, MALDI MS; 10 µg/mL PDI, 0 mM DTT: 0.007 | Ratio (B chain): mass peak area of B peptide chain to intact insulin, MALDI MS; 10 µg/mL PDI, 0 mM sulfite: 0.017 | Ratio (B chain): mass peak area of B peptide chain to intact insulin, MALDI MS; 10 µg/mL PDI, 2 mM DTT: 0.335 | Ratio (B chain): mass peak area of B peptide chain to intact insulin, MALDI MS; 10 µg/mL PDI, 2.9 mM sulfite: 0.17
